Experimental data published in patent US20100304465.

Biological target: delta-plasminogen
Sequence (chain, as listed by the source mutant): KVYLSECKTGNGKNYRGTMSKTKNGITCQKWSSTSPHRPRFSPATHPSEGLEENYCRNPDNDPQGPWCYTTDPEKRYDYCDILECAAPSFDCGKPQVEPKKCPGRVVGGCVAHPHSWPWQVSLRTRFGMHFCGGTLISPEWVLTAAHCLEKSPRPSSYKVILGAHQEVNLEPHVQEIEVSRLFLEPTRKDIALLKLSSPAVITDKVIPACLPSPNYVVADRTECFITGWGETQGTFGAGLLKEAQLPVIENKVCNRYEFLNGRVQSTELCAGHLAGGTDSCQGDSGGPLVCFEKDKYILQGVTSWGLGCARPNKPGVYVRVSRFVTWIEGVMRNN

B1: tissue Plasminogen Activator (protein)
chain: SYQVICRDEKTQMIYQQHQSWLRPVLRSNRVEYCWCNSGRAQCHSVPVKSCSEPRCFNGGTCQQALYFSDFVCQCPEGFAGKCCEIDTRATCYEDQGISYRGTWSTAESGAECTNWNSSALAQKPYSGRRPDAIRLGLGNHNYCRNPDRDSKPWCYVFKAGKYSSEFCSTPACSEGNSDCYFGNGSAYRGTHSLTESGASCLPWNSMILIGKVYTAQNPSAQALGLGKHNYCRNPDGDAKPWCHVLKNRRLTWEYCDVPSCSTCGLRQYSQPQFRIKGGLFADIASHPWQAAIFAKHRRSPGERFLCGGILISSCWILSAAHCFQERFPPHHLTVILGRTYRVVPGEEEQKFEVEKYIVHKEFDDDTYDNDIALLQLKSDSSRCAQESSVVRTVCLPPADLQLPDWTECELSGYGKHEALSPFYSERLKEAHVRLYPSSRCTSQHLLNRTVTDNMLCAGDTRSGGPQANLHDACQGDSGGPLVCLNDGRMTLVGIISWGLGCGQKDVPGVYTKVTNYLDWIRDNMRP
conversion of one-chain delta-plasminogen into two-chain delta-plasmin (reduced SDS-PAGE): delta-plasminogen indeed can be activated by all three plasminogen activators
